Results reported in the Human Domainome abundance scans (Beltran et al. 2025).
± gives the uncertainty stated by the source.

B1: DnaJ homolog subfamily C member 5, residues 16 to 77; numbered along this chain, Q9H3Z4 (parent)
chain: LYHVLGLDKNATSDDIKKSYRKLALKYHPDKNPDNPEAADKFKEINNAHAILTDATKRNIYD

Variants of: B1
Test: abundance fitness (aPCA) (normalised: wild type 0, dead -1); higher = more abundant; growth selection in yeast, the domain comes from the species named
Settings: Homo sapiens
With LYHVLGLDKNATSDDIKKSYRKLWLKYHPDKNPDNPEAADKFKEINNAHAILTDATKRNIYD [A24W] the abundance fitness was 0.245 ± 0.084. Variant LYHVLGLDKNATSDDIKKSYRKLYLKYHPDKNPDNPEAADKFKEINNAHAILTDATKRNIYD [A24Y] has an abundance fitness of 0.208 ± 0.091. Variant LYHVLGLDKNATSDDIKKSYRKLAAKYHPDKNPDNPEAADKFKEINNAHAILTDATKRNIYD [L25A] has an abundance fitness of 0.039 ± 0.066. In the case of LYHVLGLDKNATSDDIKKSYRKLACKYHPDKNPDNPEAADKFKEINNAHAILTDATKRNIYD [L25C], the abundance fitness is reported as -0.102 ± 0.11. For LYHVLGLDKNATSDDIKKSYRKLADKYHPDKNPDNPEAADKFKEINNAHAILTDATKRNIYD [L25D], the abundance fitness was 0.17 ± 0.089. Variant LYHVLGLDKNATSDDIKKSYRKLAEKYHPDKNPDNPEAADKFKEINNAHAILTDATKRNIYD [L25E] has an abundance fitness of 0.321 ± 0.11. For LYHVLGLDKNATSDDIKKSYRKLAFKYHPDKNPDNPEAADKFKEINNAHAILTDATKRNIYD [L25F], the abundance fitness was -0.068 ± 0.085. With LYHVLGLDKNATSDDIKKSYRKLAGKYHPDKNPDNPEAADKFKEINNAHAILTDATKRNIYD [L25G] the abundance fitness was -0.293 ± 0.064. LYHVLGLDKNATSDDIKKSYRKLAHKYHPDKNPDNPEAADKFKEINNAHAILTDATKRNIYD [L25H] showed an abundance fitness of -0.442 ± 0.23. LYHVLGLDKNATSDDIKKSYRKLAKKYHPDKNPDNPEAADKFKEINNAHAILTDATKRNIYD [L25K] gave an abundance fitness of -0.159 ± 0.22. With LYHVLGLDKNATSDDIKKSYRKLAMKYHPDKNPDNPEAADKFKEINNAHAILTDATKRNIYD [L25M] the abundance fitness was -0.101 ± 0.078. LYHVLGLDKNATSDDIKKSYRKLANKYHPDKNPDNPEAADKFKEINNAHAILTDATKRNIYD [L25N] showed an abundance fitness of -0.073 ± 0.11. With LYHVLGLDKNATSDDIKKSYRKLAPKYHPDKNPDNPEAADKFKEINNAHAILTDATKRNIYD [L25P] the abundance fitness was -0.21 ± 0.095. LYHVLGLDKNATSDDIKKSYRKLAQKYHPDKNPDNPEAADKFKEINNAHAILTDATKRNIYD [L25Q] gave an abundance fitness of 0.024 ± 0.11. Variant LYHVLGLDKNATSDDIKKSYRKLARKYHPDKNPDNPEAADKFKEINNAHAILTDATKRNIYD [L25R] has an abundance fitness of -0.069 ± 0.067. For LYHVLGLDKNATSDDIKKSYRKLASKYHPDKNPDNPEAADKFKEINNAHAILTDATKRNIYD [L25S], the abundance fitness was -0.377 ± 0.08. Variant LYHVLGLDKNATSDDIKKSYRKLATKYHPDKNPDNPEAADKFKEINNAHAILTDATKRNIYD [L25T] has an abundance fitness of -0.025 ± 0.096. With LYHVLGLDKNATSDDIKKSYRKLAVKYHPDKNPDNPEAADKFKEINNAHAILTDATKRNIYD [L25V] the abundance fitness was -0.007 ± 0.065. Work on LYHVLGLDKNATSDDIKKSYRKLAWKYHPDKNPDNPEAADKFKEINNAHAILTDATKRNIYD [L25W] yielded an abundance fitness of -0.346 ± 0.088. Variant LYHVLGLDKNATSDDIKKSYRKLAYKYHPDKNPDNPEAADKFKEINNAHAILTDATKRNIYD [L25Y] has an abundance fitness of -0.299 ± 0.12. Work on LYHVLGLDKNATSDDIKKSYRKLALAYHPDKNPDNPEAADKFKEINNAHAILTDATKRNIYD [K26A] yielded an abundance fitness of -0.081 ± 0.065. With LYHVLGLDKNATSDDIKKSYRKLALCYHPDKNPDNPEAADKFKEINNAHAILTDATKRNIYD [K26C] the abundance fitness was -0.318 ± 0.16. LYHVLGLDKNATSDDIKKSYRKLALDYHPDKNPDNPEAADKFKEINNAHAILTDATKRNIYD [K26D] gave an abundance fitness of -0.12 ± 0.14. LYHVLGLDKNATSDDIKKSYRKLALEYHPDKNPDNPEAADKFKEINNAHAILTDATKRNIYD [K26E] gave an abundance fitness of 0.155 ± 0.08. In the case of LYHVLGLDKNATSDDIKKSYRKLALFYHPDKNPDNPEAADKFKEINNAHAILTDATKRNIYD [K26F], the abundance fitness is reported as -0.385 ± 0.13. Work on LYHVLGLDKNATSDDIKKSYRKLALGYHPDKNPDNPEAADKFKEINNAHAILTDATKRNIYD [K26G] yielded an abundance fitness of -0.415 ± 0.079. LYHVLGLDKNATSDDIKKSYRKLALHYHPDKNPDNPEAADKFKEINNAHAILTDATKRNIYD [K26H] showed an abundance fitness of -0.239 ± 0.15. In the case of LYHVLGLDKNATSDDIKKSYRKLALIYHPDKNPDNPEAADKFKEINNAHAILTDATKRNIYD [K26I], the abundance fitness is reported as 0.244 ± 0.12. LYHVLGLDKNATSDDIKKSYRKLALLYHPDKNPDNPEAADKFKEINNAHAILTDATKRNIYD [K26L] gave an abundance fitness of -0.075 ± 0.065. LYHVLGLDKNATSDDIKKSYRKLALMYHPDKNPDNPEAADKFKEINNAHAILTDATKRNIYD [K26M] gave an abundance fitness of 0.021 ± 0.083. LYHVLGLDKNATSDDIKKSYRKLALNYHPDKNPDNPEAADKFKEINNAHAILTDATKRNIYD [K26N] gave an abundance fitness of -0.358 ± 0.11. Work on LYHVLGLDKNATSDDIKKSYRKLALPYHPDKNPDNPEAADKFKEINNAHAILTDATKRNIYD [K26P] yielded an abundance fitness of -0.264 ± 0.13. For LYHVLGLDKNATSDDIKKSYRKLALQYHPDKNPDNPEAADKFKEINNAHAILTDATKRNIYD [K26Q], the abundance fitness was 0.032 ± 0.11. Work on LYHVLGLDKNATSDDIKKSYRKLALRYHPDKNPDNPEAADKFKEINNAHAILTDATKRNIYD [K26R] yielded an abundance fitness of -0.214 ± 0.084. Work on LYHVLGLDKNATSDDIKKSYRKLALSYHPDKNPDNPEAADKFKEINNAHAILTDATKRNIYD [K26S] yielded an abundance fitness of -0.211 ± 0.079. In the case of LYHVLGLDKNATSDDIKKSYRKLALTYHPDKNPDNPEAADKFKEINNAHAILTDATKRNIYD [K26T], the abundance fitness is reported as -0.189 ± 0.11. LYHVLGLDKNATSDDIKKSYRKLALVYHPDKNPDNPEAADKFKEINNAHAILTDATKRNIYD [K26V] gave an abundance fitness of -0.13 ± 0.06. Variant LYHVLGLDKNATSDDIKKSYRKLALWYHPDKNPDNPEAADKFKEINNAHAILTDATKRNIYD [K26W] has an abundance fitness of -0.477 ± 0.094. LYHVLGLDKNATSDDIKKSYRKLALKAHPDKNPDNPEAADKFKEINNAHAILTDATKRNIYD [Y27A] gave an abundance fitness of -0.344 ± 0.1. Work on LYHVLGLDKNATSDDIKKSYRKLALKCHPDKNPDNPEAADKFKEINNAHAILTDATKRNIYD [Y27C] yielded an abundance fitness of -0.239 ± 0.19. Variant LYHVLGLDKNATSDDIKKSYRKLALKDHPDKNPDNPEAADKFKEINNAHAILTDATKRNIYD [Y27D] has an abundance fitness of -0.316 ± 0.12. Work on LYHVLGLDKNATSDDIKKSYRKLALKEHPDKNPDNPEAADKFKEINNAHAILTDATKRNIYD [Y27E] yielded an abundance fitness of -0.07 ± 0.091. LYHVLGLDKNATSDDIKKSYRKLALKFHPDKNPDNPEAADKFKEINNAHAILTDATKRNIYD [Y27F] gave an abundance fitness of 0.185 ± 0.14.
